Source: patent US20220204580A1 (AstraZeneca / MedImmune, published 2022)
Blank lines part the entries; values can stand above or below the binder they belong to. Numbered stars: 1 amine (or outer) side, 2 acyl side, 3 side chain; on linkers, the order of the positions; unused ones are H or OH. Bridge positions count the residues as written; N and C are the ends. Square brackets hold non-standard residues; d marks the D form. Side chains are listed from the residue outwards. Ends that are not written are not given here. * marks the point of attachment. C18 diacid = O=C(O)CCCCCCCCCCCCCCCCC(=O)*; γGlu = O=C(O)[C@H](CCC(=O)[*:2])N[*:1]; Aib = CC(C)(N)C(=O)O

What was measured:
[1] = molecular target: T1, human amylin receptor (calcitonin receptor co-expressed with receptor activity modifying protein, RAMP3) (human, UniProt P30988 25-474; O60896 24-148); test: cell-based or functional assay
T1 sequence (looked up) 1: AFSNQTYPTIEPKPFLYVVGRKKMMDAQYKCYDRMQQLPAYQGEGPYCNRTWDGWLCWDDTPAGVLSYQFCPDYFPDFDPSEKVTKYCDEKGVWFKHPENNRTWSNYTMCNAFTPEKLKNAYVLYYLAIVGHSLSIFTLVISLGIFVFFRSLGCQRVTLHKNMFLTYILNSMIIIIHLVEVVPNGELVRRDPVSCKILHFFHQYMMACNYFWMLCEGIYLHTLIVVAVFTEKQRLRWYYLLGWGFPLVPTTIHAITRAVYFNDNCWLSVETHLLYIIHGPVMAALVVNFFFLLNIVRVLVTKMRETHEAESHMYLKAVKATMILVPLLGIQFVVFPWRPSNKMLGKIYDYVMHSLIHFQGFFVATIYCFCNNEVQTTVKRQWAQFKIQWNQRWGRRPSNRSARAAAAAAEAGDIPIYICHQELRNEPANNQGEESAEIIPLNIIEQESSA
T1 sequence (looked up) 2: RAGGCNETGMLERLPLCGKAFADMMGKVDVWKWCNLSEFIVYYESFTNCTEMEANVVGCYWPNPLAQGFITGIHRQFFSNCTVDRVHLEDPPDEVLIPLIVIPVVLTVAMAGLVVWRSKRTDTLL

[2] = molecular target: T2, human calcitonin receptor (human, UniProt P30988 25-474); test: cell-based or functional assay
T2 sequence (looked up): T1 sequence (looked up) 1

EC50 (cAMP production) [1]: 0.209 nM
Ratio (EC50 hCTR / EC50 hAMYR3) [1]: 107
EC50 (cAMP production) [2]: 22.3 nM
B1: Peptide 76 (SEQ ID NO: 76) (peptide)
peptide: K([γGlu-C18 diacid])CNTATCATQRLANFLRHSS[Aib]NFGPILPPTRVGSNTY-NH2
modifications: disulfide 2-7; N-terminus assumed
SMILES: CC[C@H](C)[C@H](NC(=O)[C@@H]1CCCN1C(=O)CNC(=O)[C@H](Cc1ccccc1)NC(=O)[C@H](CC(N)=O)NC(=O)C(C)(C)NC(=O)[C@H](CO)NC(=O)[C@H](CO)NC(=O)[C@H](Cc1c[nH]cn1)NC(=O)[C@H](CCCNC(=N)N)NC(=O)[C@H](CC(C)C)NC(=O)[C@H](Cc1ccccc1)NC(=O)[C@H](CC(N)=O)NC(=O)[C@H](C)NC(=O)[C@H](CC(C)C)NC(=O)[C@H](CCCNC(=N)N)NC(=O)[C@H](CCC(N)=O)NC(=O)[C@@H](NC(=O)[C@H](C)NC(=O)[C@@H]1CSSC[C@H](NC(=O)[C@@H](N)CCCCNC(=O)CC[C@H](NC(=O)CCCCCCCCCCCCCCCCC(=O)O)C(=O)O)C(=O)N[C@@H](CC(N)=O)C(=O)N[C@@H]([C@@H](C)O)C(=O)N[C@@H](C)C(=O)N[C@@H]([C@@H](C)O)C(=O)N1)[C@@H](C)O)C(=O)N[C@@H](CC(C)C)C(=O)N1CCC[C@H]1C(=O)N1CCC[C@H]1C(=O)N[C@H](C(=O)N[C@@H](CCCNC(=N)N)C(=O)N[C@H](C(=O)NCC(=O)N[C@@H](CO)C(=O)N[C@@H](CC(N)=O)C(=O)N[C@H](C(=O)N[C@@H](Cc1ccc(O)cc1)C(N)=O)[C@@H](C)O)C(C)C)[C@@H](C)O

EC50 (cAMP production) [1]: 0.288 nM
Ratio (EC50 hCTR / EC50 hAMYR3) [1]: 11
EC50 (cAMP production) [2]: 3.15 nM
B2: Peptide 78 (SEQ ID NO: 78) (peptide)
peptide: K([γGlu-C18 diacid])KCNTATCATQRLANFLVHSS[Aib]NFGP[Aib]LPPTNVGSNTY-NH2
modifications: disulfide 3-8; N-terminus assumed
SMILES: CC(C)C[C@H](NC(=O)[C@H](CCCNC(=N)N)NC(=O)[C@H](CCC(N)=O)NC(=O)[C@@H](NC(=O)[C@H](C)NC(=O)[C@@H]1CSSC[C@H](NC(=O)[C@H](CCCCN)NC(=O)[C@@H](N)CCCCNC(=O)CC[C@H](NC(=O)CCCCCCCCCCCCCCCCC(=O)O)C(=O)O)C(=O)N[C@@H](CC(N)=O)C(=O)N[C@@H]([C@@H](C)O)C(=O)N[C@@H](C)C(=O)N[C@@H]([C@@H](C)O)C(=O)N1)[C@@H](C)O)C(=O)N[C@@H](C)C(=O)N[C@@H](CC(N)=O)C(=O)N[C@@H](Cc1ccccc1)C(=O)N[C@@H](CC(C)C)C(=O)N[C@H](C(=O)N[C@@H](Cc1c[nH]cn1)C(=O)N[C@@H](CO)C(=O)N[C@@H](CO)C(=O)NC(C)(C)C(=O)N[C@@H](CC(N)=O)C(=O)N[C@@H](Cc1ccccc1)C(=O)NCC(=O)N1CCC[C@H]1C(=O)NC(C)(C)C(=O)N[C@@H](CC(C)C)C(=O)N1CCC[C@H]1C(=O)N1CCC[C@H]1C(=O)N[C@H](C(=O)N[C@@H](CC(N)=O)C(=O)N[C@H](C(=O)NCC(=O)N[C@@H](CO)C(=O)N[C@@H](CC(N)=O)C(=O)N[C@H](C(=O)N[C@@H](Cc1ccc(O)cc1)C(N)=O)[C@@H](C)O)C(C)C)[C@@H](C)O)C(C)C

EC50 (cAMP production) [1]: 0.231 nM
Ratio (EC50 hCTR / EC50 hAMYR3) [1]: 11
EC50 (cAMP production) [2]: 2.52 nM
B3: Peptide 77 (SEQ ID NO: 77) (peptide)
peptide: K([γGlu-γGlu-C18 diacid])CNTATCATQRLANFLRHSS[Aib]NFGPILPPTRVGSNTY-NH2
modifications: disulfide 2-7; N-terminus assumed
SMILES: CC[C@H](C)[C@H](NC(=O)[C@@H]1CCCN1C(=O)CNC(=O)[C@H](Cc1ccccc1)NC(=O)[C@H](CC(N)=O)NC(=O)C(C)(C)NC(=O)[C@H](CO)NC(=O)[C@H](CO)NC(=O)[C@H](Cc1c[nH]cn1)NC(=O)[C@H](CCCNC(=N)N)NC(=O)[C@H](CC(C)C)NC(=O)[C@H](Cc1ccccc1)NC(=O)[C@H](CC(N)=O)NC(=O)[C@H](C)NC(=O)[C@H](CC(C)C)NC(=O)[C@H](CCCNC(=N)N)NC(=O)[C@H](CCC(N)=O)NC(=O)[C@@H](NC(=O)[C@H](C)NC(=O)[C@@H]1CSSC[C@H](NC(=O)[C@@H](N)CCCCNC(=O)CC[C@H](NC(=O)CC[C@H](NC(=O)CCCCCCCCCCCCCCCCC(=O)O)C(=O)O)C(=O)O)C(=O)N[C@@H](CC(N)=O)C(=O)N[C@@H]([C@@H](C)O)C(=O)N[C@@H](C)C(=O)N[C@@H]([C@@H](C)O)C(=O)N1)[C@@H](C)O)C(=O)N[C@@H](CC(C)C)C(=O)N1CCC[C@H]1C(=O)N1CCC[C@H]1C(=O)N[C@H](C(=O)N[C@@H](CCCNC(=N)N)C(=O)N[C@H](C(=O)NCC(=O)N[C@@H](CO)C(=O)N[C@@H](CC(N)=O)C(=O)N[C@H](C(=O)N[C@@H](Cc1ccc(O)cc1)C(N)=O)[C@@H](C)O)C(C)C)[C@@H](C)O

EC50 (cAMP production) [1]: 0.407 nM
Ratio (EC50 hCTR / EC50 hAMYR3) [1]: 7
EC50 (cAMP production) [2]: 2.97 nM
B4: Peptide 80 (SEQ ID NO: 80) (peptide)
peptide: K([γGlu-C18 diacid])KCNTATCATQRLANFLVHSS[Aib]NFGPILPPT[Aib]VGSNTY-NH2
modifications: disulfide 3-8; N-terminus assumed
SMILES: CC[C@H](C)[C@H](NC(=O)[C@@H]1CCCN1C(=O)CNC(=O)[C@H](Cc1ccccc1)NC(=O)[C@H](CC(N)=O)NC(=O)C(C)(C)NC(=O)[C@H](CO)NC(=O)[C@H](CO)NC(=O)[C@H](Cc1c[nH]cn1)NC(=O)[C@@H](NC(=O)[C@H](CC(C)C)NC(=O)[C@H](Cc1ccccc1)NC(=O)[C@H](CC(N)=O)NC(=O)[C@H](C)NC(=O)[C@H](CC(C)C)NC(=O)[C@H](CCCNC(=N)N)NC(=O)[C@H](CCC(N)=O)NC(=O)[C@@H](NC(=O)[C@H](C)NC(=O)[C@@H]1CSSC[C@H](NC(=O)[C@H](CCCCN)NC(=O)[C@@H](N)CCCCNC(=O)CC[C@H](NC(=O)CCCCCCCCCCCCCCCCC(=O)O)C(=O)O)C(=O)N[C@@H](CC(N)=O)C(=O)N[C@@H]([C@@H](C)O)C(=O)N[C@@H](C)C(=O)N[C@@H]([C@@H](C)O)C(=O)N1)[C@@H](C)O)C(C)C)C(=O)N[C@@H](CC(C)C)C(=O)N1CCC[C@H]1C(=O)N1CCC[C@H]1C(=O)N[C@H](C(=O)NC(C)(C)C(=O)N[C@H](C(=O)NCC(=O)N[C@@H](CO)C(=O)N[C@@H](CC(N)=O)C(=O)N[C@H](C(=O)N[C@@H](Cc1ccc(O)cc1)C(N)=O)[C@@H](C)O)C(C)C)[C@@H](C)O

EC50 (cAMP production) [1]: 0.404 nM
Ratio (EC50 hCTR / EC50 hAMYR3) [1]: 7
EC50 (cAMP production) [2]: 2.76 nM
B5: Peptide 81 (SEQ ID NO: 81) (peptide)
peptide: K([γGlu-C18 diacid])KCNTATCATQRLANFLVHSS[Aib]NFGPILPPTNV[Aib]SNTY-NH2
modifications: disulfide 3-8; N-terminus assumed
SMILES: CC[C@H](C)[C@H](NC(=O)[C@@H]1CCCN1C(=O)CNC(=O)[C@H](Cc1ccccc1)NC(=O)[C@H](CC(N)=O)NC(=O)C(C)(C)NC(=O)[C@H](CO)NC(=O)[C@H](CO)NC(=O)[C@H](Cc1c[nH]cn1)NC(=O)[C@@H](NC(=O)[C@H](CC(C)C)NC(=O)[C@H](Cc1ccccc1)NC(=O)[C@H](CC(N)=O)NC(=O)[C@H](C)NC(=O)[C@H](CC(C)C)NC(=O)[C@H](CCCNC(=N)N)NC(=O)[C@H](CCC(N)=O)NC(=O)[C@@H](NC(=O)[C@H](C)NC(=O)[C@@H]1CSSC[C@H](NC(=O)[C@H](CCCCN)NC(=O)[C@@H](N)CCCCNC(=O)CC[C@H](NC(=O)CCCCCCCCCCCCCCCCC(=O)O)C(=O)O)C(=O)N[C@@H](CC(N)=O)C(=O)N[C@@H]([C@@H](C)O)C(=O)N[C@@H](C)C(=O)N[C@@H]([C@@H](C)O)C(=O)N1)[C@@H](C)O)C(C)C)C(=O)N[C@@H](CC(C)C)C(=O)N1CCC[C@H]1C(=O)N1CCC[C@H]1C(=O)N[C@H](C(=O)N[C@@H](CC(N)=O)C(=O)N[C@H](C(=O)NC(C)(C)C(=O)N[C@@H](CO)C(=O)N[C@@H](CC(N)=O)C(=O)N[C@H](C(=O)N[C@@H](Cc1ccc(O)cc1)C(N)=O)[C@@H](C)O)C(C)C)[C@@H](C)O

EC50 (cAMP production) [1]: 0.659 nM
Ratio (EC50 hCTR / EC50 hAMYR3) [1]: 7
EC50 (cAMP production) [2]: 4.8 nM
B6: Peptide 79 (SEQ ID NO: 79) (peptide)
peptide: K([γGlu-C18 diacid])KCNTATCATQRLANFLVHSS[Aib]NFGPI[Aib]PPTNVGSNTY-NH2
modifications: disulfide 3-8; N-terminus assumed
SMILES: CC[C@H](C)[C@H](NC(=O)[C@@H]1CCCN1C(=O)CNC(=O)[C@H](Cc1ccccc1)NC(=O)[C@H](CC(N)=O)NC(=O)C(C)(C)NC(=O)[C@H](CO)NC(=O)[C@H](CO)NC(=O)[C@H](Cc1c[nH]cn1)NC(=O)[C@@H](NC(=O)[C@H](CC(C)C)NC(=O)[C@H](Cc1ccccc1)NC(=O)[C@H](CC(N)=O)NC(=O)[C@H](C)NC(=O)[C@H](CC(C)C)NC(=O)[C@H](CCCNC(=N)N)NC(=O)[C@H](CCC(N)=O)NC(=O)[C@@H](NC(=O)[C@H](C)NC(=O)[C@@H]1CSSC[C@H](NC(=O)[C@H](CCCCN)NC(=O)[C@@H](N)CCCCNC(=O)CC[C@H](NC(=O)CCCCCCCCCCCCCCCCC(=O)O)C(=O)O)C(=O)N[C@@H](CC(N)=O)C(=O)N[C@@H]([C@@H](C)O)C(=O)N[C@@H](C)C(=O)N[C@@H]([C@@H](C)O)C(=O)N1)[C@@H](C)O)C(C)C)C(=O)NC(C)(C)C(=O)N1CCC[C@H]1C(=O)N1CCC[C@H]1C(=O)N[C@H](C(=O)N[C@@H](CC(N)=O)C(=O)N[C@H](C(=O)NCC(=O)N[C@@H](CO)C(=O)N[C@@H](CC(N)=O)C(=O)N[C@H](C(=O)N[C@@H](Cc1ccc(O)cc1)C(N)=O)[C@@H](C)O)C(C)C)[C@@H](C)O
